Results taken from patent publication US20110009316A1.

Tests used:
MutAla = MutAla (UniProt P15692)
[1] = biological target: VEGF165 wild type synthesized in COS-1 cells (UniProt P15692)
[2] = biological target: commercially available recombinant VEGF165 protein (R&D Systems) (UniProt P15692)
MutGln = MutGln (UniProt P15692)
[3] = biological target: VEGF165 wild type synthesized in COS-1 cells (UniProt P15692); assay: cell-based or functional assay
[4] = biological target: commercially available recombinant VEGF165 protein (R&D Systems) (UniProt P15692); assay: cell-based or functional assay

MutPro, sequence (chain, as listed by the source): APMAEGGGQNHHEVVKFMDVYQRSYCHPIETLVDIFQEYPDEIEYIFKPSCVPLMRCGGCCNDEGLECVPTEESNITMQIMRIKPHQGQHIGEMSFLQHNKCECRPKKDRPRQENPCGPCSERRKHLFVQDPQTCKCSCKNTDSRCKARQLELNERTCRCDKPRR
MutLys-Pro, sequence (chain, as listed by the source): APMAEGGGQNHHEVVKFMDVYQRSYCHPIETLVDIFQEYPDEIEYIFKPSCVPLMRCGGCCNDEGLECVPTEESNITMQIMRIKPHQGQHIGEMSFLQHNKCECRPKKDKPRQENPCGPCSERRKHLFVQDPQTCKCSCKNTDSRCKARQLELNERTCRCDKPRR

Row | Substance | degradation on incubation with plasmin [0.01 U/ml], Western blotting and immunodetection (MutAla) | degradation on incubation with plasmin [0.01 U/ml], Western blotting and immunodetection [1] | degradation on incubation with plasmin [0.01 U/ml], Western blotting and immunodetection (MutPro) | degradation on incubation with plasmin [0.01 U/ml], Western blotting and immunodetection [2] | degradation on incubation with plasmin [0.01 U/ml], Western blotting and immunodetection (MutLys-Pro) | degradation on incubation with plasmin [0.01 U/ml], Western blotting and immunodetection (MutGln) | loss of biological activity (BrdU incorporation into HUVE cells) 20 minutes after incubation with plasmin [3] [%] | remaining biological activity (BrdU incorporation into HUVE cells) after 240 minutes with plasmin (% of the initial activity) [3] | loss of biological activity (BrdU incorporation into HUVE cells) 20 minutes after incubation with plasmin [4] [%] | remaining biological activity (BrdU incorporation into HUVE cells) after 240 minutes with plasmin (% of the initial activity) [4]
1 | plasmin | the mutated protein shows no change in the migration behaviour up to 240 minutes after incubation | shows degradation of the growth factor after only 15 minutes | also show a comparable stability of the signal bands at 45 and 42 kDA after incubation with plasmid for 240 minutes | the degradation pattern is similar to that of the commercially obtainable VEGF165 | also show a comparable stability of the signal bands at 45 and 42 kDA after incubation with plasmid for 240 minutes | also show a comparable stability of the signal bands at 45 and 42 kDA after incubation with plasmid for 240 minutes |  |  |  | 
2 | plasmin (enzyme) |  |  |  |  |  |  | > 20 | 50 | > 20 | 50
